Measurements: the nanobody polyreactivity screen of Harvey et al. (2022)

Test: yeast display, Sf9 membrane polyspecificity reagent, FACS + sequencing; frameworks hold sequencing errors
Outline: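 A synthetic nanobody library was expressed on Saccharomyces cerevisiae BJ5465 by galactose induction for 36–48 hours. The library was stained for 1 hour at 4 °C with 10% biotinylated, detergent-solubilized Sf9 membrane reagent and enriched with streptavidin microbeads before FACS. Low and high (top ~1%) gates were set on anti-HA fluorescence for expression and streptavidin fluorescence for reagent binding, and each polyreactivity label reflects the gate of origin.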

Row | Sequence | polyreactivity (PSR sort gate)
1 | QVQLVESGGGLVQAGGSLRLSCAASGGIFGYYAMGWYRQAPGKERELVAAINYSGGSTYYADSVKGRFTISRDNAKNTVYLQMNSLKPEDTAVYYCNAVVRDYTFRYYYWGQGTQVTVSS | low polyreactivity
2 | QVQLVESGGGLVQAGGSLRLSCAASGGIFGYYAMGWYRQAPGKERELVAAISSSGGSTYYADSVKGRFTISRDNAKNTVYLQMNSLKPEDTAVYYCAAYRKVGGFSRGDYWGQGTQVTVSS | high polyreactivity
3 | QVQLVESGGGLVQAGGSLRLSCAASGGIFGYYTMGWYRQAPGKERELVAAITWRGSTYYADSVKGRFTISRDNAKNTVYLQMNSLKPEDTAVYYCAARYYSPYGYCGQGTQVTVSS | high polyreactivity
4 | QVQLVESGGGLVQAGGSLRLSCAASGGIFHYYAMGWYRQAPGKERELVAAISWNTGSTYYADSVKGRFTISRDNAKNTVYLQMNSLKPVDTAVYYCAASYRSPWLRYDYWGQGTQVTVSS | high polyreactivity
5 | QVQLVESGGGLVQAGGSLRLSCAASGGIFIDYALGWYRQAPGKERELVAAITYSGTSTSYADSVKGRFTISRDNAKITVYLQMNSLKPEDTAVYYCNTYPVLFYVGLDYWGQGTQVTVSS | low polyreactivity
6 | QVQLVESGGGLVQAGGSLRLSCAASGGIFIFYAMGWYRQAPGKERELVAAISNVSSTNYADSVKGRFTISRDNAQNTVYLQMNSLKPEDTAVYYCNAVCVPSEYYSWGQGSQVTVSS | low polyreactivity
7 | QVQLVESGGGLVQAGGSLRLSCAASGGIFKRNTMGWYRQAPGKERELGAGISWTGGRTYYADSVKGRFTISRDTAKNTVYLQMNSLKPEDTAVYYCAAKPLQGVRRVEYWGQGTQVTVSS | high polyreactivity
8 | QVQLVESGGGLVQAGGSLRLSCAASGGIFKSNTMGWYRQAPGKERELFAAITSGGSTNYADSVKGRFTISRDNAKNTVYLQMNSLKPEDTAVYYCNTDDRYYTPSRAVFQYDYWGQGTQVTVSS | low polyreactivity
9 | QVQLVESGGGLVQAGGSLRLSCAASGGIFLSNAMGWYRQAPGKERELVAAISRSGGSTYYADSVKWRFTISRDNAKNTVYLQMYSLKPEDTAVYYCAARWTRNYGMNYWGQGTQVTVSS | high polyreactivity
10 | QVQLVESGGGLVQAGGSLRLSCAASGGIFLVNDMGWYRQAPGKERELFAAITSGGGTYYADSVKGRFTISRDNAKNTVYLQMNSLKPEDTAVYYCARDTYRQIVSNESYGYWGQGTQVTVSS | low polyreactivity
11 | QVQLVESGGGLVQAGGSLRLSCAASGGIFNYYAMGWYRQAPGKERELVAAISASGGSTYYADSVKGRFTISRDNAKNTVYLQMNSLKQEDTAVYYCAAKYPQKTPVNSYGNSFYYWGQGTQVTVSS | low polyreactivity
12 | QVQLVESGGGLVQAGGSLRLSCAASGGIFPSYAMGWYRQAPGKERELVAAITRGASTYADSVKGRFTISRDNAKNTVYLQMNSLKPEDTAVYYCAADTKRRSIRYDYWGQGTQVTVSS | high polyreactivity
13 | QVQLVESGGGLVQAGGSLRLSCAASGGIFPYYAMGLYRQAPGKERELVADISSGGSTYYEDSVKGRFTISRDNAKNTVYLQMNSLKPEDTAVYYCAAEDTLAGSVARFGEYDYWGQGTQVTVSS | low polyreactivity
14 | QVQLVESGGGLVQAGGSLRLSCAASGGIFPYYAMGWYSQAPGKEMELVAGISQNDGRTYYADSVKGRFTISRDNAKNTVYLQMNSLKPEDTAVYYCATVYWYPRYGYWGQGTQVTVSS | low polyreactivity
15 | QVQLVESGGGLVQAGGSLRLSCAASGGIFQENAMGWYRPAPGKERELVATITRSTGSTYYADSVKGRFTISRDNAKNTVYLQMNSLKPEDTAVYYCAARRRSQYYRYAYKYDYWGQGTQVTVSS | high polyreactivity
16 | QVQLVESGGGLVQAGGSLRLSCAASGGIFQENAMGWYRQAPGKERELVATITRSTGSTYYADSVKGRFTISRDNAKNTVYLQMNSLKPEDTAVYYCAARRRSQYYRYAYKYDYWGQGTQVTVSS | high polyreactivity
17 | QVQLVESGGGLVQAGGSLRLSCAASGGIFQGNVMGWYRQAPGKERELVASIRRGGSTNYADSVKGRFTISRDNAKNTVYLQMNSLKPEDTAVYYCSARKWVGYHVWPLREYNYWGQGTQVTVSS | low polyreactivity
18 | QVQLVESGGGLVQAGGSLRLSCAASGGIFRFNAMGWYRQAPGKERELVAGISSTYYADSVKGRFTISRDNAKNTVYLQMNSLKPEDTAVYYCAAAGPEEHGYTYPGNNQMEYWGQGTQVTVSS | low polyreactivity
19 | QVQLVESGGGLVQAGGSLRLSCAASGGIFRGYAMGCYRQAPGKERELVATITFSGTSTYYADSVKGRFTISRDNAKNTVYLQMNSLKPEDTAVYYCNADWWFKYDYWGQGTQVTVSS | low polyreactivity
20 | QVQLVESGGGLVQAGGSLRLSCAASGGIFRGYAMGWYRQAPGKERELVATITFSGTSTNYADSVKGRFTISRDNAKNTVYFQMNRLKPEDTAVYYFAAGPVFGGGGYDYWGKGTQVTVSS | low polyreactivity
21 | QVQLVESGGGLVQAGGSLRLSCAASGGIFRYYAMGWSRQAPGKEMELVAAITRGGRTSYADSVKGRFTISRDNAKNSVYLQMNSLKPEDTAVYYCNAKRPYQEHNSYGYWGQGTLVTVSS | high polyreactivity
22 | QVQLVESGGGLVQAGGSLRLSCAASGGIFSRYAIGWYRQAPGKEREFVAAISFSGASTYYADSVKGRFTISRDNAKNTVYLQMNSLKPEDTAVYYCAADRVWPYYQYDYWGQGTQVTVSS | low polyreactivity

Row | Sequence | polyreactivity (PSR sort gate)
23 | QVQLVESGGGLVQAGGSLRLSCAASGGIFSSYAMGWYRPAPGKERELVAAISSSSGSTYYADSVKGRFTISRDNAKNTVYLQMNSLKPEDTGVYYCAADSGHPDWYYYCGQGTQVTVSS | high polyreactivity
24 | QVQLVESGGGLVQAGGSLRLSCAASGGIFSTNGMGWYRQAPGKERELVATISYGGGSTSYADSVKGRFTISRDNAKNTVYLHMNSLKPEDTAVYYCAADSFGYNSWYNYDYWGQGSQVTVSS | low polyreactivity
25 | QVQLVESGGGLVQAGGSLRLSCAASGGIFSWYAMGWYRQAPGKERELVAAISWSGSRTYYADSVKGRFTISRDNAKNTVYLQMNCLKPEDTAVYYCAADYIFRRYPVGGIYDYDYWGQGTQVTVSS | high polyreactivity
26 | QVQLVESGGGLVQAGGSLRLSCAASGGIFSWYDMGWYREAPGKERELVAAISWSGGSTYYADSVKGRFTISRDNAKHTVYLQMNSLKPEDTAVYYCAAYTADDYDYWGQGTQVTVSS | high polyreactivity
27 | QVQLVESGGGLVQAGGSLRLSCAASGGIFSYNAMGWYRQAPGKERELVAAITSSGSTYYADSVKGRFTISRDNAKNTVYLQMNSLKPEDTAVYYCNAVKRNSWIRGYWGQGTQVTVSS | low polyreactivity
28 | QVQLVESGGGLVQAGGSLRLSCAASGGIFTQYVMGWYRQAPGKERELVAAINWSGGSTTYAYSVKGRFTISRDNAKNTVYLQMNSLKPEVTAVYYCAAYSYREFYYWGQGTQVTVSS | high polyreactivity
29 | QVQLVESGGGLVQAGGSLRLSCAASGGIFVANAMGWYRQAPGKERELVAAISRSGGSTYYADSVKGRFTISRDNAKNTVYLQMNSLKPEDTAVYYCAAKSRRQYTVGLTSDYWGQGTQVTVSS | high polyreactivity
30 | QVQLVESGGGLVQAGGSLRLSCAASGGIFVDNAMGWYRQAPGKERELVATITSTGSTNYADSVKGRFTISRDNAKNTVYLQMNSLKPEDTAVYYCNADGILQDYDYWGQGTQVTVSS | low polyreactivity
31 | QVQLVESGGGLVQAGGSLRLSCAASGGIFVFYAMGWYRQAPGKERELVAAIRYGGSSTYYADSVKGRFTISRDNAKNTVYLQMNSLKPEDTAVYYCAAEHYSVYDPIGDYWGQGTQVTVSS | low polyreactivity
32 | QVQLVESGGGLVQAGGSLRLSCAASGGIFVPNAMGWNRQAPGQEREFVARISFSGVSTYYADSVKGRFTISRDNAKNSVYLQLNSLKPEDTAVYYCACDKRARLGAMGYWGQGTQVTVSS | low polyreactivity
33 | QVQLVESGGGLVQAGGSLRLSCAASGGIFVSYAMGLYRQAPGKERELVARINSVDGTNYADSVKGRFTISRDNAKNTVYLQMNSLKPEDTAVYYCAVRSPVLASDYGYYFLRDYWGQGTQVTVSS | low polyreactivity
34 | QVQLVESGGGLVQAGGSLRLSCAASGGIFVYNMGWYRQAPGKERELVAAISVSGGSTYYADSVKGRFTISRDNAKNTVYLQMNSLKPEDTAVYYCAASRPPYRDDYWGQGSQVTVSS | high polyreactivity
35 | QVQLVESGGGLVQAGGSLRLSCAASGGIFVYYAMGWYRQAPGKERELVAAISSGGTTNYADSVKGRFTISRDNAKNTVYLQMNSLKPEDTAVYYCAIYVSWPLYYYWGQGTQVTVSS | low polyreactivity
36 | QVQLVESGGGLVQAGGSLRLSCAASGGIFWHYTMGWYRQAPGKERELVAAITRRGGSTYYADSVKGRFTISRDNAKNTVYLQMNSLKPEDTSVYYGAAVFEWTSRGSYYRYYYWGQGTQVTVSS | low polyreactivity
37 | QVQLVESGGGLVQAGGSLRLSCAASGGIFWRYAMGWYRPAPGKERELVAAISSRGGSTYYADSVKGRFTISRDNAKNTVYLQMNSLKPEDTAVYYCAADRRYAESGYYWGQGTQVTVSS | high polyreactivity
38 | QVQLVESGGGLVQAGGSLRLSCAASGGIFWTYAMGWYRQEPGKERELVAAISYSDGITYYADSGKGRFTISRDNAKNTVYFQMYSLKPEDTAVYYCAADPELAVPMYYWGQGTQVTVSS | low polyreactivity
39 | QVQLVESGGGLVQAGGSLRLSCAASGGIFYDYTMGWYRQAPGKERELVAVISSSGSTYYADSVKGRFTISRDNAKNTVYLLMNSLKPEDTAVYYCNALGWYGDYDYWGQGTQVTVSS | low polyreactivity
40 | QVQLVESGGGLVQAGGSLRLSCAASGGIFYGYAMGWYRQAPGKERELVASISSDDRTNNADSVKGRFTISRDNAKNTVYLQMNSLKPEDTAVYSCNAELGSDTSNFDYWGQGTQVTVSS | low polyreactivity
41 | QVQLVESGGGLVQAGGSLRLSCAASGGIFYSNAMGWYRPAPGKERELVAAISRDGTITYYADSVKGRFTISRDNAKNTVYLQMNSLKPEDTAVYYCAADASIQSWYSIYDYWGQGTQVTVSS | high polyreactivity
42 | QVQLVESGGGLVQAGGSLRLSCAASGGIFYSYAMGWYRQAPGKEREFVAAIRRSGGRTYYADSVKGRFTISRDNAKNTVYLQMNSLKPEDTAVYYCAADGWYSGGHDYWGQGTQVTVSS | high polyreactivity
43 | QVQLVESGGGLVQAGGSLRLSCAASGGIIEDNMGWYRQAPGKERELVAAIDLRADSTYYADSVKGRFTISRDNAKNTVYLQMNSLKPEDTAVYYCAAGARQGVYRGGDYWGQGTQVTVSS | low polyreactivity
